According to patent US20250257143A1:

Target: beta gamma receptor (CD122/CD132) for IL2 and IL15 on a reporter cell line (UniProt P14784)
Sequence (P14784 27-551 limits assumed, chain 1 of 2): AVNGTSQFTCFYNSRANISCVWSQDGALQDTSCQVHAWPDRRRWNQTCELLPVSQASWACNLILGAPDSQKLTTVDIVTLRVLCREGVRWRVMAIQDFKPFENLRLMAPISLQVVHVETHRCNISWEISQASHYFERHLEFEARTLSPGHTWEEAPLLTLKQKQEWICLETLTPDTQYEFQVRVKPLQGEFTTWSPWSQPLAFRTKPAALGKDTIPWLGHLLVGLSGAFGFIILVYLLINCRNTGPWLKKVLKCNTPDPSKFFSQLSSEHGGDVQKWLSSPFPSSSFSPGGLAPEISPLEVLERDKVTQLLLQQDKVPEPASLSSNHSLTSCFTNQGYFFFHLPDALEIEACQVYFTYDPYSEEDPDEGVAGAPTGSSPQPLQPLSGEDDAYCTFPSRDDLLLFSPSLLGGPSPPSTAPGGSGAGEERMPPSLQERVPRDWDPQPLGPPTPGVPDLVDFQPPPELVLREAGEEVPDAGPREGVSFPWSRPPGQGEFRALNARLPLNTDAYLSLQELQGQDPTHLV
Sequence (P31785 23-369 limits assumed, chain 2 of 2, further chain): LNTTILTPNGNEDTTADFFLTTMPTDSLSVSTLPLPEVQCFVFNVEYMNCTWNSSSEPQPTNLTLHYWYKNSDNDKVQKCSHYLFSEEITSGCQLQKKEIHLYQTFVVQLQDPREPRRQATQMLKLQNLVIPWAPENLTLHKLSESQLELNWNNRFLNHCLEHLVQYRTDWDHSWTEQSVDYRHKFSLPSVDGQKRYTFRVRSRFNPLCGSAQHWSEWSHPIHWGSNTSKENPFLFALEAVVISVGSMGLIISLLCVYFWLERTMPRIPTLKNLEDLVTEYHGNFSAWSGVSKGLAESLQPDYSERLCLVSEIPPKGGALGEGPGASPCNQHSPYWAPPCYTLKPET

## anti-human CD122 antibody Clone TU27 (BioLegend, Catalog #339015)
  IC50, inhibition of the IL2 (12.5 ng/mL)-driven luciferase signal (RLUs) in βγ-receptor reporter cells: 0.0757 µg/mL
  IC50, inhibition of the IL15 (6 ng/mL)-driven luciferase signal (RLUs) in βγ-receptor reporter cells: 0.6 µg/mL
